Assay results from US20210061879A1.

How the values were obtained:
[1] = molecular target: HER2 on cancer cells (MCF7, SKBR3, BT474, SKOV3, OVCAR3) (human) (UniProt P04626); assay: flow cytometry on OVCAR3 cells; retelling of FIG. 16 with a different last digit (1436 there)
[2] = molecular target: HER2 on cancer cells (MCF7, SKBR3, BT474, SKOV3, OVCAR3) (human) (UniProt P04626); assay: flow cytometry, 100 nM memAb trastuzumab on BT474 cells, secondary anti-kappa-647 (secondary alone: 392)
[3] = molecular target: HER2 on cancer cells (MCF7, SKBR3, BT474, SKOV3, OVCAR3) (human) (UniProt P04626); assay: flow cytometry, 100 nM memAb trastuzumab on OVCAR3 cells, secondary anti-kappa-647 (secondary alone: 307)
[4] = molecular target: HER2 on cancer cells (MCF7, SKBR3, BT474, SKOV3, OVCAR3) (human) (UniProt P04626); assay: flow cytometry, 100 nM memAb trastuzumab on SKOV3 cells, secondary anti-kappa-647 (secondary alone: 370)
[5] = molecular target: HER2 on cancer cells (MCF7, SKBR3, BT474, SKOV3, OVCAR3) (human) (UniProt P04626); assay: flow cytometry, 100 nM memAb trastuzumab on MCF7 cells, secondary anti-kappa-647 (secondary alone: 338)
[6] = molecular target: HER2 on cancer cells (MCF7, SKBR3, BT474, SKOV3, OVCAR3) (human) (UniProt P04626); assay: cell-based or functional assay
[7] = molecular target: HER2 on cancer cells (MCF7, SKBR3, BT474, SKOV3, OVCAR3) (human) (UniProt P04626); assay: flow cytometry, 100 nM memAb trastuzumab on SKBR3 cells, secondary anti-kappa-647 (secondary alone: 330)

MFI [1]: 1440 | median fluorescence intensity (MFI) [2]: 31700 | median fluorescence intensity (MFI) [3]: 1440 | median fluorescence intensity (MFI) [4]: 43200 | median fluorescence intensity (MFI) [5]: 985 | EC50 of Jurkat-NFAT-Luc meditope-CAR cell activation (luminescence), co-culture with BT474 [6]: 0.26 nM | EC50 of Jurkat-NFAT-Luc meditope-CAR cell activation (luminescence), co-culture with MCF7 [6]: 0.42 nM | EC50 of Jurkat-NFAT-Luc meditope-CAR cell activation (luminescence), co-culture with SKBR3 [6]: 0.83 nM | EC50 of Jurkat-NFAT-Luc meditope-CAR cell activation (luminescence), co-culture with SKOV3 [6]: 0.35 nM | median fluorescence intensity (MFI) [7]: 34400
Substance: meditope-enabled I83E trastuzumab IgG (antibody)
IC50 of cancer cell viability, BT474 co-incubated with memAb trastuzumab and FabRack T cells, 3 days [6]: 0.33 nM | IC50 of cancer cell viability, MCF7 co-incubated with memAb trastuzumab and FabRack T cells, 3 days [6]: 0.069 nM | IC50 of cancer cell viability, SKBR3 co-incubated with memAb trastuzumab and FabRack T cells, 3 days [6]: 0.11 nM | IC50 of cancer cell viability, SKOV3 co-incubated with memAb trastuzumab and FabRack T cells, 3 days [6]: 0.046 nM
